The results in this text go back to PMC4895691, “Suppressor of IKKɛ is an essential negative regulator of pathological cardiac hypertrophy” (Nature Communications, 2016).

For this test, the target named is T1, Flag-tagged TBK1 (TANK-binding kinase 1), human, full length (human, UniProt Q9UHD2 1-729).
T1 construct: entire coding region cloned into the EcoRI and XhoI sites of pSicoR-Flag-C1; also called Flag-TBK1; pSicoR-Flag-TBK1; source: HEK293T, transfected, in lysate (co-IP); immunopurified from HEK293T and eluted with FLAG peptide (GST pull-down)
T1 sequence (looked up): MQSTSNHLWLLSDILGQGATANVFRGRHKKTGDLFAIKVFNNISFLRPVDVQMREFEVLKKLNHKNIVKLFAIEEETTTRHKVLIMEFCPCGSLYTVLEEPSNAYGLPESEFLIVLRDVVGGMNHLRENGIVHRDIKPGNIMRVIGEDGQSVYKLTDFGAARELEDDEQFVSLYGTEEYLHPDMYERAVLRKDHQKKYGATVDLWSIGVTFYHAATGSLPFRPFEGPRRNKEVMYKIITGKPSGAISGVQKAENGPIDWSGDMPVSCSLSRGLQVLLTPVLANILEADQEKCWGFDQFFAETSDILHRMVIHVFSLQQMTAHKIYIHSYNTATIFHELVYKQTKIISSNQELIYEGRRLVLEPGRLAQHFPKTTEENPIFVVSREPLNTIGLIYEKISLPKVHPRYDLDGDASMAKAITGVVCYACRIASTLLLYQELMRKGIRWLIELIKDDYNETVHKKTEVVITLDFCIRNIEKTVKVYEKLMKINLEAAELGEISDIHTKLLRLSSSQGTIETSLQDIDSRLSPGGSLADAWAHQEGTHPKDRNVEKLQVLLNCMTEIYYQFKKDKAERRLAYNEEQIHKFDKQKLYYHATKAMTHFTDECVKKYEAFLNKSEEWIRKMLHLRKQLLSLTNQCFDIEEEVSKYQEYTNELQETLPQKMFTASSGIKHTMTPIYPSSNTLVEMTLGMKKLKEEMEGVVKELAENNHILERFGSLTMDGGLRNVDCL
Kind of test: pull-down; GST-SIKE from E. coli on glutathione-sepharose 4B beads incubated 4 h at 4 °C with immunopurified Flag-TBK1 from HEK293T; washed with IP lysis buffer, eluted with 20 mM reduced glutathione; anti-FLAG blot; GST tag as negative control. The conditions noted are these: both partners purified.

B1: GST-SIKE fusion protein, human SIKE (natural protein, UniProt Q9BRV8 1-207, looked up)
chain: MSCTIEKILTDAKTLLERLREHDAAAESLVDQSAALHRRVAAMREAGTALPDQYQEDASDMKDMSKYKPHILLSQENTQIRDLQQENRELWISLEEHQDALELIMSKYRKQMLQLMVAKKAVDAEPVLKAHQSHSAEIESQIDRICEMGEVMRKAVQVDDDQFCKIQEKLAQLELENKELRELLSISSESLQARKENSMDTASQAIK
notes: Suppressor of IKKɛ (SIKE), human; human SIKE gene cloned into pGEX-4T-1; also called pGEX-4T-1-GST-SIKE; source: E. coli Rosetta (DE3), purified on glutathione-sepharose 4B beads
Regarding B1, the binding result is recorded as “binds”.
